Laboratory results reported in patent publication US20250368745A1 (published 2025).
Several values for one entry are separate records, joined by “and”; a condition that tells them apart may be missing. Equal entries are not always repeated. Where two headings read alike, the source gives them in different places.

What was measured:
[1] = target: hypo-IL-18 (IL-18 tethered to IL-18BP by a flexible linker with TEV site, 6xHis) (human); assay: BLI
[2] = target: T1, human IL-18BP (interleukin-18 binding protein, isoform A) (human, UniProt O95998 31-194); assay: cell-based or functional assay
T1 sequence: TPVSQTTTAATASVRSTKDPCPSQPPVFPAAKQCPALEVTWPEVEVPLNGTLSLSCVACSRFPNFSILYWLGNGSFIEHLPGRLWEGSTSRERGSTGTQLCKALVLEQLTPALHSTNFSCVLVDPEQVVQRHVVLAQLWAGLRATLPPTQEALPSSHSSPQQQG

[3] = target: T1, human IL-18BP (interleukin-18 binding …); assay: cell-based or functional assay; remark: listed apart in the source
[4] = target: T1, human IL-18BP (interleukin-18 binding …); assay: BLI (Octet), mAb on AHC biosensor
cynomolgus IL-18BP [5] = target: T2, cynomolgus IL-18BP (cynomolgus monkey); assay: BLI (Octet), mAb on AHC biosensor
T2 construct: Generated in-house; also called cyIL-18BP; cyno IL-18BP
T2 chain: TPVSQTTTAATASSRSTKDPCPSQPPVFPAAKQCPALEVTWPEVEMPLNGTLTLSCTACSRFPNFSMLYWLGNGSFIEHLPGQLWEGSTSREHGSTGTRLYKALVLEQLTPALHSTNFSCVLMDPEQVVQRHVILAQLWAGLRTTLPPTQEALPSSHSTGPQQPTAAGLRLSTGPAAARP

[6] = target: T1, human IL-18BP (interleukin-18 binding …); assay: BLI (Octet), mAb on AHC biosensor; remark: listed apart in the source
cynomolgus IL-18BP [7] = target: T2, cynomolgus IL-18BP; assay: BLI (Octet), mAb on AHC biosensor
[8] = target: T1, human IL-18BP (interleukin-18 binding …); assay: BLI (Octet), mAb on AHC biosensor; remark: listed apart in the source
cynomolgus IL-18BP [9] = target: T2, cynomolgus IL-18BP; assay: BLI (Octet), mAb on AHC biosensor
cynomolgus IL-18BP [10] = target: T2, cynomolgus IL-18BP; assay: ratio of BLI KDs for cyno and human IL-18BP
mouse IL-18BP [11] = target: T3, mouse IL-18BP (mouse, UniProt Q9Z0M9 29-193); assay: BLI (Octet), mAb on AHC biosensor
T3 construct: also called mIL-18BP
T3 sequence: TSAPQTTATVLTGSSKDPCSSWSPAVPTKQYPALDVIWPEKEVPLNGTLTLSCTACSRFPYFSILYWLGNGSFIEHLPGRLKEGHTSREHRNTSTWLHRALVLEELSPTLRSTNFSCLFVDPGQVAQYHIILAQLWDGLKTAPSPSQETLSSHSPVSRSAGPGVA

mouse IL-18BP [12] = target: T3, mouse IL-18BP; assay: BLI (Octet), mAb on AHC biosensor; remark: listed apart in the source
[13] = target: T1, human IL-18BP (interleukin-18 binding …); assay: BLI (Octet), mAb on AHC biosensor; remark: listed apart in the source
cynomolgus IL-18BP [14] = target: T2, cynomolgus IL-18BP; assay: BLI (Octet), mAb on AHC biosensor
[15] = target: T1, human IL-18BP (interleukin-18 binding …); assay: BLI (Octet), mAb on AHC biosensor; remark: listed apart in the source
cynomolgus IL-18BP [16] = target: T2, cynomolgus IL-18BP; assay: BLI (Octet), mAb on AHC biosensor
cynomolgus IL-18BP [17] = target: T2, cynomolgus IL-18BP; assay: ratio of BLI KDs, cyno against human IL-18BP
mouse IL-18BP [18] = target: T3, mouse IL-18BP; assay: BLI (Octet), mAb on AHC biosensor; remark: listed apart in the source
[19] = target: T1, human IL-18BP (interleukin-18 binding …); assay: cell-based or functional assay; remark: listed apart in the source
mouse IL-18BP [20] = target: T3, mouse IL-18BP; assay: BLI (Octet), mAb on AHC biosensor; remark: listed apart in the source
[21] = target: T1, human IL-18BP (interleukin-18 binding …); assay: BLI single-concentration screen, apparent KD
cynomolgus IL-18BP [22] = target: T2, cynomolgus IL-18BP; assay: BLI single-concentration screen, apparent KD

hypo-IL-18 (IL-18 tethered to IL-18BP by a flexible linker with TEV site, 6xHis) (human), sequence (chain, as listed by the source limits assumed): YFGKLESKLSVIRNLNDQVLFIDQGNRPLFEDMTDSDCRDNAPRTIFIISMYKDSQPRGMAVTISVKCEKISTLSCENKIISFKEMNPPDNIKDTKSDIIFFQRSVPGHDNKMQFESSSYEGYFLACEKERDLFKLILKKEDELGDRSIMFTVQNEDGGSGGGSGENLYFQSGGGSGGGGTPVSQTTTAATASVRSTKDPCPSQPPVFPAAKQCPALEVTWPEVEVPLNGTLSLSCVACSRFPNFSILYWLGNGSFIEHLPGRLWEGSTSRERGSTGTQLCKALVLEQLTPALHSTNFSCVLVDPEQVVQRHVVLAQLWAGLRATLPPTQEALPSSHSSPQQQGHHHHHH

B1: SA04a (antibody, human IgG1, V domains shown)
VH: QIQFVQSGPEVKTPGETVKISCKASVYTFTEYPMHWLKQAPGEDFEWMGWIHTYSGEPTYADDFKGRFAFSLETSASTAYLQINNLKTEDTATYFCARGRYYGALDYWGQGTALT
VL: DIQMTQTPSSLSASLGDRVTISCRASQDISNYLNWYQQKPDGTVKLLIYYTSRLHSGVPSRFSGSGSGTDYSLTISNLEQEDVATYFCQHGNTLPRTFGGGTKLEIK
notes: murine variable regions on human IgG1 kappa constant regions
- binding result [1]: no binding
- EC50 (nM), HEK293 IL-18 Reporter Assay (SEAP) [2]: 0.1 nM
- EC50 (nM), KG-1 Assay (IFNγ) [3]: 2.6 nM
- Kd [4]: 250 pM
- Kd (cynomolgus IL-18BP [5]): 670 pM
- Kd [6]: 260 pM
- Kd (cynomolgus IL-18BP [7]): 1500 pM
- Kd [8]: 260 pM
- Kd (cynomolgus IL-18BP [9]): 1500 pM
- Human/Cyno Fold Difference (cynomolgus IL-18BP [10]): 5.8 fold

B2: SA31a (antibody, human IgG1, V domains shown)
VH: QVQLQQPGSELVRPGASVKLSCKASGYTFTSYWMHWVKQRPGQGLEWIGNIYPGSGNTIYDEKFKSKATLTVDTSSSTAYMQLSSLTSEDSAVYYCTRWDNWEGYYFDYWGQGTTLTVSS
VL: DIVMTQAAFSNPVTLGTSASISCRSSKSLLHSNGITYLYWYLQKPGQSPQLLIYQMSNLASGVPDRFSSSGSGTDFTLRISRVEAEDVGVYYCAQNLELPWTFGGGTKLEIK
notes: as for B1
- binding result [1]: no binding
- EC50 (nM), HEK293 IL-18 Reporter Assay (SEAP) [2]: 2.62 nM
- EC50 (nM), KG-1 Assay (IFNγ) [3]: 185 nM
- Kd [4]: 3000 pM
- Kd (cynomolgus IL-18BP [5]): 5000 pM

B3: SA07a (antibody, human IgG1, V domains shown)
VH: EVQLQQSGPELVKPGASVKISCKASGYTFTDYYMNWVKQSHGKSLEWIGDINPNNGGTSYNQKFKGKATLTVDKSSNTAYMELRSLTSEDSAVYYCAREGVYSNYGGYFDYWGQGTTLTVSS
VL: QIVLTQSPALMSASPGEKVTMTCSASSSVSYMYWYQQKPRSSPKPWIYLTSNLASGVPARFSGSGSGTSYSLTISSMEAEDAATYYCQQWSSNPPTFGSGTKLEIK
notes: as for B1
- binding result (mouse IL-18BP [11]): no binding

B4: SA44a (antibody, human IgG1, V domains shown)
VH: DVQLQESGPDLVKPSQSLSLTCTVTGYSITSDYNCHWIRQFPGNKLEWMGYIHYSGSTNYNPSLKSRISITRDTSKNQFFLQLNSVTAEDTATYYCARNYGSIYVNYFDYWGQGTTLTVSS
VL: QIVLTQSPAIMSASPGEKVTISCSASSSVSYMYWYQQEPGSSPKPWIYRTSNLASGVPPRFSGSGSGTSYSLTISSMEAEDAATYFCQQYHSYPTFGGGTKLEIK
notes: as for B1
- binding result [1]: no binding
- Kd [4]: 510 pM
- Kd (cynomolgus IL-18BP [5]): 670 pM
- Kd [6]: 688 pM
- Kd (cynomolgus IL-18BP [7]): 525 pM
- binding result (mouse IL-18BP [12]): no binding
- Kd [13]: 688 pM
- Kd (cynomolgus IL-18BP [14]): 525 pM
- Kd [15]: 685 pM
- Kd (cynomolgus IL-18BP [16]): 524 pM
- Human/Cyno Fold Difference (cynomolgus IL-18BP [10]): 1 fold
- Cyno/human (cynomolgus IL-18BP [17]): 0.76 ratio

B5: SA50a (antibody, human IgG1, V domains shown)
VH: QVQLVQSGSELKKPGASVKVSCKASVYTFTEYPMHWLRQAPGQGFEWMGWIHTYSGEPTYADDFKGRFVFSLDTSVSTAYLQISSLKAEDTAVYFCARGRYYGALDYWGQGTALTVSS
VL: DIQMTQSPSSLSASVGDRVTITCRASQDISNYLNWYQQKPGKAVKLLIYYTSRLHSGVPSRFSGSGSGTDYTFTISSLQPEDIATYFCQHGNTLPRTFGGGTKLEIK
notes: humanized; human IgG1 (suffix a), kappa; also called humanized SA04a
- Kd [8]: 410 pM
- Kd (cynomolgus IL-18BP [9]): 4270 pM
- binding result (mouse IL-18BP [18]): no binding

B6: SA301a (antibody, human IgG1, V domains shown)
VH: QVQLQESGPGLVKPSQTLSLTCTVSGYSITSDYNSHWIRQPPGKGLEWIGYIHYSGSTNYNPSLKSRVTISRDTSKNQFSLKLSSVTAADTAVYYCARNYGSIYVNYFDYWGQGTLVTVSS
VL: EIVLTQSPATLSLSPGERATLSCSASSSVSYMYWYQQKPGQAPRPLIYRTSNLASGIPARFSGSGSGTDFTLTISSLEPEDFAVYYCQQYHSYPTFGGGTKVEIK
notes: humanized; human IgG1 (suffix a), kappa; also called humanized SA44a
- EC50 (nM), KG-1 Assay (IFNγ) [3]: 1.3 nM
- EC50 in PBMC Assay 1 (endogenous IL-18BP), IFNγ [19]: 2000 pM
- Kd [13]: 162 pM
- Kd (cynomolgus IL-18BP [14]): 78 pM
- binding result (mouse IL-18BP [20]): no binding
- Kd [15]: 217 pM
- Kd (cynomolgus IL-18BP [16]): 102 pM
- Cyno/human (cynomolgus IL-18BP [17]): 0.47 ratio
- Kd [21]: 200 pM and 300 pM
- Kd (cynomolgus IL-18BP [22]): 100 pM and 200 pM

B7: SA35a (antibody, human IgG1, V domains shown)
VH: QVQLQQSGAELVRPGVSVKISCKGSGYTFTDYPMHWVKQSHAKSLEWIGVISTYYGDASYNQKFKGKATMTVDKSSSTAYMELARLTSEDSAIYYCARWRGSFDYWGQGTTLTVSS
VL: ENVLTQSPAIMSASPGEKVTMTCRASSSVSSSYLHWYQQKSGASPKLWIYSTSNLASGVPARFSGSGSGTSYSLTISSVEAEDAATYYCQQYSGYHTFGGGTKLEIK
notes: as for B1
- binding result [1]: no binding
- EC50 (nM), HEK293 IL-18 Reporter Assay (SEAP) [2]: 21 nM
- EC50 (nM), KG-1 Assay (IFNγ) [3]: 103 nM
- Kd [4]: 11000 pM
- Kd (cynomolgus IL-18BP [5]): 13000 pM
